In US20160252527A1 (Takeda / Millennium, published 2016):

Key:
[1] = molecular target: human plasma kallikrein (pKal) (human, UniProt P03952 20-638); assay: cell-based or functional assay
[2] = molecular target: cynomolgus monkey plasma kallikrein (pKal) (cynomolgus monkey); assay: cell-based or functional assay
Chain of cynomolgus monkey plasma kallikrein (pKal) (cynomolgus monkey) (chain, as listed by the source): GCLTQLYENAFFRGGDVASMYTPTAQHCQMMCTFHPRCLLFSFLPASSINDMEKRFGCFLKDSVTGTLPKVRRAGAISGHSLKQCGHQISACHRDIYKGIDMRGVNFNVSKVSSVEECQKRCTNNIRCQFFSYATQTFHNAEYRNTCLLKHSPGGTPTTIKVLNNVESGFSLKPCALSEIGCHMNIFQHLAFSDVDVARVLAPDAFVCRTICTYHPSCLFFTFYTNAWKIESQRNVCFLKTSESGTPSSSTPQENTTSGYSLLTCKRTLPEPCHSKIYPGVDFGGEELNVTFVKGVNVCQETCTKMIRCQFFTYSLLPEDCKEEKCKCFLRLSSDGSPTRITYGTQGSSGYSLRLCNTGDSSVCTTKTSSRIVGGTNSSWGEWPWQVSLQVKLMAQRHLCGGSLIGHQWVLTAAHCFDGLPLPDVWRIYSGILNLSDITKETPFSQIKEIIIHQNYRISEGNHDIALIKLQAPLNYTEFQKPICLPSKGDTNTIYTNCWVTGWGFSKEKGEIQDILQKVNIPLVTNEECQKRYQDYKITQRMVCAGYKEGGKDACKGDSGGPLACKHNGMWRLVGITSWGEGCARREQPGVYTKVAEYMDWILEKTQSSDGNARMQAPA

Chain of human plasma kallikrein (pKal) (P03952 20-638 limits assumed): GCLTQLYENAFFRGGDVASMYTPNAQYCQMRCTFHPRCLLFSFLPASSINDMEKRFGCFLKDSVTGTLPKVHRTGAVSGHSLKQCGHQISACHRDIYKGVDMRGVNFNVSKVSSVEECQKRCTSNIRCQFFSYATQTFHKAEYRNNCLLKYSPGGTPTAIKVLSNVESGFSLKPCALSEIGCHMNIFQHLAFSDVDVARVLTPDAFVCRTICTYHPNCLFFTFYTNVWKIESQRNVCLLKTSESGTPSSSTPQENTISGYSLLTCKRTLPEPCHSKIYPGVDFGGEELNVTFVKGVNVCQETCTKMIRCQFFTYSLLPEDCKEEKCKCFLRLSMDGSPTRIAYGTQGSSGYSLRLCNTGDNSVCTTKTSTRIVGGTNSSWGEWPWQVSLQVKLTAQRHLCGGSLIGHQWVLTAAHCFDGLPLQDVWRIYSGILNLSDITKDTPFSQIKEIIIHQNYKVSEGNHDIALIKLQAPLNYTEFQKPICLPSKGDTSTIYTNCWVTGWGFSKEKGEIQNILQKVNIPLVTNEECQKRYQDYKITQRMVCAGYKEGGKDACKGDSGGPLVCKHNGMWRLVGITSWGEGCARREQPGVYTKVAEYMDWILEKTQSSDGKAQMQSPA

B1: alpha 2 macroglobulin (α2M) (other, UniProt P01023 24-1474, looked up)
chain: SVSGKPQYMVLVPSLLHTETTEKGCVLLSYLNETVTVSASLESVRGNRSLFTDLEAENDVLHCVAFAVPKSSSNEEVMFLTVQVKGPTQEFKKRTTVMVKNEDSLVFVQTDKSIYKPGQTVKFRVVSMDENFHPLNELIPLVYIQDPKGNRIAQWQSFQLEGGLKQFSFPLSSEPFQGSYKVVVQKKSGGRTEHPFTVEEFVLPKFEVQVTVPKIITILEEEMNVSVCGLYTYGKPVPGHVTVSICRKYSDASDCHGEDSQAFCEKFSGQLNSHGCFYQQVKTKVFQLKRKEYEMKLHTEAQIQEEGTVVELTGRQSSEITRTITKLSFVKVDSHFRQGIPFFGQVRLVDGKGVPIPNKVIFIRGNEANYYSNATTDEHGLVQFSINTTNVMGTSLTVRVNYKDRSPCYGYQWVSEEHEEAHHTAYLVFSPSKSFVHLEPMSHELPCGHTQTVQAHYILNGGTLLGLKKLSFYYLIMAKGGIVRTGTHGLLVKQEDMKGHFSISIPVKSDIAPVARLLIYAVLPTGDVIGDSAKYDVENCLANKVDLSFSPSQSLPASHAHLRVTAAPQSVCALRAVDQSVLLMKPDAELSASSVYNLLPEKDLTGFPGPLNDQDNEDCINRHNVYINGITYTPVSSTNEKDMYSFLEDMGLKAFTNSKIRKPKMCPQLQQYEMHGPEGLRVGFYESDVMGRGHARLVHVEEPHTETVRKYFPETWIWDLVVVNSAGVAEVGVTVPDTITEWKAGAFCLSEDAGLGISSTASLRAFQPFFVELTMPYSVIRGEAFTLKATVLNYLPKCIRVSVQLEASPAFLAVPVEKEQAPHCICANGRQTVSWAVTPKSLGNVNFTVSAEALESQELCGTEVPSVPEHGRKDTVIKPLLVEPEGLEKETTFNSLLCPSGGEVSEELSLKLPPNVVEESARASVSVLGDILGSAMQNTQNLLQMPYGCGEQNMVLFAPNIYVLDYLNETQQLTPEIKSKAIGYLNTGYQRQLNYKHYDGSYSTFGERYGRNQGNTWLTAFVLKTFAQARAYIFIDEAHITQALIWLSQRQKDNGCFRSSGSLLNNAIKGGVEDEVTLSAYITIALLEIPLTVTHPVVRNALFCLESAWKTAQEGDHGSHVYTKALLAYAFALAGNQDKRKEVLKSLNEEAVKKDNSVHWERPQKPKAPVGHFYEPQAPSAEVEMTSYVLLAYLTAQPAPTSEDLTSATNIVKWITKQQNAQGGFSSTQDTVVALHALSKYGAATFTRTGKAAQVTIQSSGTFSSKFQVDNNNRLLLQQVSLPELPGEYSMKVTGEGCVYLQTSLKYNILPEKEEFPFALGVQTLPQTCDEPKAHTSFQISLSVSYTGSRSASNMAIVDVKMVSGFIPLKPTVKMLERSNHVSRTEVSSNHVLIYLDKVSNQTLSLFFTVLQDVPVRDLKPAIVKVYDYYETDEFAIAEYNAPCSKDLGNA
Question: With B1 as the binder, how does the “IC50 (read off the curve)” value [1] read?
Answer: Its value is ~400 nM.

B2: DX-2930 (antibody, INN chains, looked up, V domains shown)
VH: EVQLLESGGGLVQPGGSLRLSCAASGFTFSHYIMMWVRQAPGKGLEWVSGIYSSGGITVYADSVKGRFTISRDNSKNTLYLQMNSLRAEDTAVYYCAYRRIGVPRRDEFDIWGQGTMVTVSS
VL: DIQMTQSPSTLSASVGDRVTITCRASQSISSWLAWYQQKPGKAPKLLIYKASTLESGVPSRFSGSGSGTEFTLTISSLQPDDFATYYCQQYNTYWTFGQGTKVEIK
Question: B2 was tested. Which % Reduction of one-chain HMWK (XIIa activated plasma, 9 nM DX2930; Protein Simple Western) [1] did it give?
Answer: Its % Reduction of one-chain HMWK (XIIa activated plasma, 9 nM DX2930; Protein Simple Western) is 92.1%.

Question: What about the % Reduction of one-chain HMWK (XIIa activated plasma, 27 nM DX2930; Protein Simple Western) [1] of the same binder?
Answer: Its % Reduction of one-chain HMWK (XIIa activated plasma, 27 nM DX2930; Protein Simple Western) is 90.4%.

Question: And the % Reduction of one-chain HMWK (XIIa activated plasma, 80 nM DX2930; Protein Simple Western) [1]?
Answer: The % Reduction of one-chain HMWK (XIIa activated plasma, 80 nM DX2930; Protein Simple Western) was 79%.

Question: What about the % Reduction of one-chain HMWK (XIIa activated plasma, 240 nM DX2930; Protein Simple Western) [1] of the same binder?
Answer: Its % Reduction of one-chain HMWK (XIIa activated plasma, 240 nM DX2930; Protein Simple Western) is 63.9%.

Question: And the % Reduction of one-chain HMWK (XIIa activated plasma, 480 nM DX2930; Protein Simple Western) [1]?
Answer: Its % Reduction of one-chain HMWK (XIIa activated plasma, 480 nM DX2930; Protein Simple Western) is 54.9%.

Question: And the Area of the one-chain HMWK peak (XIIa activated plasma, 9 nM DX2930; Protein Simple Western) [1]?
Answer: Its Area of the one-chain HMWK peak (XIIa activated plasma, 9 nM DX2930; Protein Simple Western) is 842.

Question: And the Area of the one-chain HMWK peak (XIIa activated plasma, 27 nM DX2930; Protein Simple Western) [1]?
Answer: The Area of the one-chain HMWK peak (XIIa activated plasma, 27 nM DX2930; Protein Simple Western) was 1030.

Question: What about the Area of the one-chain HMWK peak (XIIa activated plasma, 80 nM DX2930; Protein Simple Western) [1] of the same binder?
Answer: The Area of the one-chain HMWK peak (XIIa activated plasma, 80 nM DX2930; Protein Simple Western) was 2230.

Question: And the Area of the one-chain HMWK peak (XIIa activated plasma, 240 nM DX2930; Protein Simple Western) [1]?
Answer: The Area of the one-chain HMWK peak (XIIa activated plasma, 240 nM DX2930; Protein Simple Western) was 3840.

Question: And the Area of the one-chain HMWK peak (XIIa activated plasma, 480 nM DX2930; Protein Simple Western) [1]?
Answer: Its Area of the one-chain HMWK peak (XIIa activated plasma, 480 nM DX2930; Protein Simple Western) is 4800.

Question: What about the maximal inhibition of pKal activity (PFR-AMC substrate), plasma of dose group 3 (1.0 mg/kg DX-2930) [1] of the same binder?
Answer: The maximal inhibition of pKal activity (PFR-AMC substrate), plasma of dose group 3 (1.0 mg/kg DX-2930) was 19%.

Question: What about the maximal inhibition of pKal activity (PFR-AMC substrate), plasma of dose group 4 (3.0 mg/kg DX-2930) [1] of the same binder?
Answer: Its maximal inhibition of pKal activity (PFR-AMC substrate), plasma of dose group 4 (3.0 mg/kg DX-2930) is 36%.

Question: And the percent inhibition of pKal activity (Pro-Phe-Arg-AMC substrate) after ex vivo FXIIa activation of plasma of a dosed monkey, drug level ~265 nM [2]?
Answer: Its percent inhibition of pKal activity (Pro-Phe-Arg-AMC substrate) after ex vivo FXIIa activation of plasma of a dosed monkey, drug level ~265 nM is 80%.
